According to PMC11946513, “Modulation of the substrate preference of a MYST acetyltransferase by a scaffold protein” (The Journal of Biological Chemistry, 2025):

Tests used:
[1] = target: full-length KAT6A (KAT6A^FL) (human) (UniProt Q92794)
[2] = target: KAT6A MYST domain (KAT6A 501-784) (human) (UniProt Q92794)
[3] = target: KAT6A^FL-BRPF1 2-protein complex (KAT6A^FL 2-plex) (human) (UniProt Q92794)
[4] = target: KAT6A^FL 4-protein complex (KAT6A^FL 4-plex) (UniProt Q92794)
Chain of KAT6A^FL 4-protein complex (KAT6A^FL 4-plex) (Q92794 whole entry, looked up, one chain of several): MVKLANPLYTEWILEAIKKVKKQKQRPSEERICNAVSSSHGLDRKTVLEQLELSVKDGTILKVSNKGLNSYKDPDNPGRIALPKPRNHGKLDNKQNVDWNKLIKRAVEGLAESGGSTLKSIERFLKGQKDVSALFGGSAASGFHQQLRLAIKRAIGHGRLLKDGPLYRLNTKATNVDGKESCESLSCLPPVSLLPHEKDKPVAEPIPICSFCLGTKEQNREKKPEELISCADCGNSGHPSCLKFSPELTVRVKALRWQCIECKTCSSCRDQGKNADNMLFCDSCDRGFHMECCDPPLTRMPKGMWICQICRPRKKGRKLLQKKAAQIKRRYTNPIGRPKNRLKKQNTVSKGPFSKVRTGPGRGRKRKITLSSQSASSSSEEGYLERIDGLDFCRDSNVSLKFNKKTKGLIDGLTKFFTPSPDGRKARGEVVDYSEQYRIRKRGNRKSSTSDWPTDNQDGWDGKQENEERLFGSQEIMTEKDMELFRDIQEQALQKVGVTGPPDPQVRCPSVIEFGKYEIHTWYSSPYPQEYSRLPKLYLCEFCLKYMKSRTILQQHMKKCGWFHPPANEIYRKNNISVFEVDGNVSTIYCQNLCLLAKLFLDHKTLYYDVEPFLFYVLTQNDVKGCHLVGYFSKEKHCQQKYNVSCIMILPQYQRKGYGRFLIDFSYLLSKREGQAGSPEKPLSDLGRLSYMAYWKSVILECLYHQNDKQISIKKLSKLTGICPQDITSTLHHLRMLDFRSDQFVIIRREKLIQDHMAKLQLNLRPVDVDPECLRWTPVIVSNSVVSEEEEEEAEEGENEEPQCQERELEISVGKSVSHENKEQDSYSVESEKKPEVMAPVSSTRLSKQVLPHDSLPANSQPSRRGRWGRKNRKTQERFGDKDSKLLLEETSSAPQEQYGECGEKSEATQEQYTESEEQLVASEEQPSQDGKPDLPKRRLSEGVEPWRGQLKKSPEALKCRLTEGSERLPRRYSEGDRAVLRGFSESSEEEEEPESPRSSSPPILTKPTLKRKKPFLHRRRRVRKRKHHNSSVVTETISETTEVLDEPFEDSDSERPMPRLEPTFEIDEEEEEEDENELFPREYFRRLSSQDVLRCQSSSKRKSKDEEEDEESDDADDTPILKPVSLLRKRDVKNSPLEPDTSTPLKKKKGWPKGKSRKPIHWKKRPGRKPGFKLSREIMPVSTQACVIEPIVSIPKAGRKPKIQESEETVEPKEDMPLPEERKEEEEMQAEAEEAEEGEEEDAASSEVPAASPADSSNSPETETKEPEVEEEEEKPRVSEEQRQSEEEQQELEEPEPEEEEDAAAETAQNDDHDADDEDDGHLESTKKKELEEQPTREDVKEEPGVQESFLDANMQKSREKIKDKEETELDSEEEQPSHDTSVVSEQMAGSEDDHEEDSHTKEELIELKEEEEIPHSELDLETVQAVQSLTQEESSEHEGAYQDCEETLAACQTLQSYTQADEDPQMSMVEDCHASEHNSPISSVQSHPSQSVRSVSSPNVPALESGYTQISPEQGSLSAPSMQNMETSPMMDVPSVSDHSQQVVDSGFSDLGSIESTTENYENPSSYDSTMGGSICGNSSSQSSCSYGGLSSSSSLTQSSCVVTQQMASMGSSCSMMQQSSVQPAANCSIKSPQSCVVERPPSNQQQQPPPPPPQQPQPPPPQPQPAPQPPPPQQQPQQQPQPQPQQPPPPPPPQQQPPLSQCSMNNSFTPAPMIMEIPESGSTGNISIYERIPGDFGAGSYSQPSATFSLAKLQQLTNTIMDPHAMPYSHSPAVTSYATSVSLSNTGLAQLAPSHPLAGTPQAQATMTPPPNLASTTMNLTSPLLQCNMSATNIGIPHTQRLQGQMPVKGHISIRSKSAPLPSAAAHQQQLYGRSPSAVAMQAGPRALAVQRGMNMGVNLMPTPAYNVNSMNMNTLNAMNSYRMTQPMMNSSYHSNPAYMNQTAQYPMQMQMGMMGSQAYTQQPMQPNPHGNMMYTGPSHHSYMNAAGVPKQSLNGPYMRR

Chain of full-length KAT6A (KAT6A^FL) (human) (Q92794 whole entry, the tested form may be a part): as the sequence (Q92794 whole entry, looked up, one chain of several) above
Chain of KAT6A MYST domain (KAT6A 501-784) (human) (Q92794 501-784): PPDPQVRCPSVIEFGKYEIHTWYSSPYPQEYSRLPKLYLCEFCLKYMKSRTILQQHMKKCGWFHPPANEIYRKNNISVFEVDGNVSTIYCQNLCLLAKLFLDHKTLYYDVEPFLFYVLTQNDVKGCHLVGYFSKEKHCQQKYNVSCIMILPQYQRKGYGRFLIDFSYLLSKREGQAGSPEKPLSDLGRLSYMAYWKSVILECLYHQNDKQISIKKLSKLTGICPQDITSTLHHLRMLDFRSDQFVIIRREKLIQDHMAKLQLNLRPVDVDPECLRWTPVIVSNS
Chain of KAT6A^FL-BRPF1 2-protein complex (KAT6A^FL 2-plex) (human) (Q92794 whole entry, chain 1 of 2): as the sequence (Q92794 whole entry, looked up, one chain of several) above
Chain of KAT6A^FL-BRPF1 2-protein complex (KAT6A^FL 2-plex) (human) (P55201 whole entry, chain 2 of 2, further chain): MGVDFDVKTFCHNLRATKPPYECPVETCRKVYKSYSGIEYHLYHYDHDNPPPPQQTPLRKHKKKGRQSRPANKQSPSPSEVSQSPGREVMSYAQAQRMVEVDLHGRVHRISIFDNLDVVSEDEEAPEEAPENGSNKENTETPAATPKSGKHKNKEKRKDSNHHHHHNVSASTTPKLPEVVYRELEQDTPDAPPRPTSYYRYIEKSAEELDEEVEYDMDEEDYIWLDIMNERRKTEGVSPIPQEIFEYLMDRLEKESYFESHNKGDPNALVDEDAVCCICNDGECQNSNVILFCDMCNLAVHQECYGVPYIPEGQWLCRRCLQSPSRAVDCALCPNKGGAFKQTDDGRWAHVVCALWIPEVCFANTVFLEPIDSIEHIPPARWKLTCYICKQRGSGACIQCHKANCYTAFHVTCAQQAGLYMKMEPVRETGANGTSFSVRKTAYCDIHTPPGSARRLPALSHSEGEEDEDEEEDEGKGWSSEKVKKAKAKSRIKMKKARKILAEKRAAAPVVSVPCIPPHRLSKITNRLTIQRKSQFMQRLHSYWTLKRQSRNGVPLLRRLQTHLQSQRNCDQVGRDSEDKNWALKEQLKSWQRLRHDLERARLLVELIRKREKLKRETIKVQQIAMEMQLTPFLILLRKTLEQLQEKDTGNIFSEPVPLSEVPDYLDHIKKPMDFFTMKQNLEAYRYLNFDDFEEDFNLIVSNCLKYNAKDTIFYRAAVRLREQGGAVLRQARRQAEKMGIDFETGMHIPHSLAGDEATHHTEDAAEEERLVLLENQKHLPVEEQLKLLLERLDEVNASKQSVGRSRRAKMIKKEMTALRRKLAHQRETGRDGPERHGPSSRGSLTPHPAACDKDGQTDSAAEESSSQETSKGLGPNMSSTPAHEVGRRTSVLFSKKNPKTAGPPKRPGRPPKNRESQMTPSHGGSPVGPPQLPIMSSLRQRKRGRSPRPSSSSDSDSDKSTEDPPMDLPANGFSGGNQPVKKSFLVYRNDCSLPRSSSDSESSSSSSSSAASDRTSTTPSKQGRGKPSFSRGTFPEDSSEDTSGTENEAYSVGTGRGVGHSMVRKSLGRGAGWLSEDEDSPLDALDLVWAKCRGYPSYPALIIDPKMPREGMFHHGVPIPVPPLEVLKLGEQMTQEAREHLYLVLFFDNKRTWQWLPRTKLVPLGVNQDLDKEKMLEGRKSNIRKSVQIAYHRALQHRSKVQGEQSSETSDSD

Substance	KM of steady-state acetylation of the peptide (CoA formation by MS; 20 μM AcCoA, 25 °C) [1] [µM]	KM of steady-state acetylation of the peptide (CoA formation by MS; 20 μM AcCoA, 25 °C) [2] [µM]	KM of steady-state acetylation of the peptide (CoA formation by MS; 20 μM AcCoA, 25 °C) [3] [µM]	KM of steady-state acetylation of the peptide (CoA formation by MS; 20 μM AcCoA, 25 °C) [4] [µM]
H3.3 (15-36) (peptide)	30	360	13	16
H3 (1-21) (peptide)	16	380	–	–
H3.3 (1-43) (peptide)	3.2	130	–	–
